Laboratory results as given in the supplement of paper PMC9732359.
± gives the uncertainty stated by the source.

Experiment: protein stability index of a GFP-peptide fusion (yeast GPS) (PSI 1-4); higher = more stable; sorted into four equal gates, so the index is relative within each strain
Method in brief: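 Tiled yeast protein peptides of 17 residues were each joined downstream of GFP, on plasmids that also express Cherry. The pooled library was maintained in yeast, and mid-log cultures in leucine-free medium were sorted into four equal gates on the GFP/Cherry ratio. Plasmids from every gate were amplified by PCR and sequenced on Illumina, with barcodes linking reads to strains. The protein stability index of a peptide is its gate-number-weighted read frequency summed over the gates.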

Sequence | protein stability index (doa10∆) | protein stability index (pdr5∆) | protein stability index (san1∆) | protein stability index (ubr1∆)
SANERLFGNRPSMMAPL [YML031W/NDC1] | 2.96 ± 0.21 | 2.63 ± 0.13 | 2.62 ± 0.12 | 3.03 ± 0.089
PTFVEFILIPLYKIFSY [SNU114] | 1.98 ± 0.045 | 1.73 ± 0.054 | 1.62 ± 0.073 | 1.63 ± 0.044
HLIFSNARIYNTEGSVV [SNF2] | 3 ± 0.12 | 3.39 ± 0.18 | 2.49 ± 0.19 | 3.18 ± 0.085
YRFYEYIYSQETKSWIN [MED1] | 1.7 ± 0.065 | 1.93 ± 0.06 | 1.53 ± 0.11 | 1.82 ± 0.042
AGGEAGEAEAEKEEEEA [RPP1A] |  | 3.47 ± 0.21 | 2.54 ± 0.22 | 3.5 ± 0.18
TENDIKALQSIGQLIGE [RPT4] | 3.21 ± 0.082 | 3.06 ± 0.095 | 2.74 ± 0.099 | 3.23 ± 0.045
KSFTNDKIPLNYAMTRN [SRB5] | 2.8 ± 0.13 | 2.55 ± 0.1 | 2.45 ± 0.06 | 2.67 ± 0.069
SPKPYAVKYGLNHVVSL [RPL8B] | 1.96 ± 0.07 | 2.09 ± 0.069 | 2.09 ± 0.092 | 1.94 ± 0.046
GCVSYSPAALKQLASLK [YMR153W/NUP53] | 1.7 ± 0.066 | 2.22 ± 0.07 | 2.08 ± 0.12 | 2.62 ± 0.078
TQATSEDGTSASFQIVE [RPC19] | 2.88 ± 0.073 | 3.18 ± 0.079 | 3.05 ± 0.051 | 3.12 ± 0.068
DSENFSFEKLYEGMKLG [YMR129W/POM152] | 3.5 ± 0.11 | 3.48 ± 0.15 | 3.42 ± 0.098 | 3.29 ± 0.074
SVTEIPLKLSGEGPFTV [YMR129W/POM152] | 2.96 ± 0.072 | 3.23 ± 0.079 | 2.78 ± 0.078 | 2.81 ± 0.16
SELQPQNRSLQEHNIQD [SNF2] | 2.81 ± 0.041 | 3.24 ± 0.05 | 3.08 ± 0.04 | 3.09 ± 0.038
MFQSQSQLQPQPQPQPQ [YDL088C/ASM4] | 2.48 ± 0.056 | 2.49 ± 0.048 | 2.29 ± 0.068 | 2.99 ± 0.04
NTVDGDLLKLVHLSNGY [FAS1] | 2.86 ± 0.07 | 2.52 ± 0.056 | 2.31 ± 0.076 | 2.46 ± 0.064
IKVDGAVGNLGNAIEVT [RPL22B] | 1.74 ± 0.12 | 2.4 ± 0.076 | 1.8 ± 0.14 | 1.58 ± 0.047
SATVKTSDLLGSHLSET [ECM29] | 2.67 ± 0.071 | 2.98 ± 0.085 | 2.94 ± 0.095 | 2.86 ± 0.076
KRELLKRYRLKESQLPR [RPB5] | 3.19 ± 0.2 | 3.29 ± 0.14 |  | 3.58 ± 0.14
LEMSTEDFVKLAPARVR [RPS15] | 2.83 ± 0.13 | 3.05 ± 0.1 | 3.07 ± 0.065 | 2.78 ± 0.07
ARLDGHDFLFNTIIRDG [RPN14] | 2.83 ± 0.091 | 2.95 ± 0.06 | 3.32 ± 0.056 | 2.81 ± 0.044
NEISRNGTMINEVIDKL [PCI8] | 2.59 ± 0.067 | 2.51 ± 0.066 | 2.48 ± 0.072 | 2.78 ± 0.065
NPHQKDQLIISSSANKL [YML103C/NUP188] | 2.45 ± 0.15 | 2.71 ± 0.094 | 2.29 ± 0.15 | 2.78 ± 0.069
FKNDFNSFYYTSLLYLS [RPN9] | 1.33 ± 0.049 | 1.81 ± 0.073 | 2.19 ± 0.11 | 1.25 ± 0.099
KAPTKLDDPEAVSKDPL [DIS3] | 3.35 ± 0.089 | 3.45 ± 0.12 | 3.17 ± 0.058 | 3.26 ± 0.068
HGSIIILGMLSLADNEI [YCS4] | 1.99 ± 0.069 | 2.04 ± 0.069 | 2.05 ± 0.1 | 2.25 ± 0.075

Sequence | protein stability index (doa10∆) | protein stability index (pdr5∆) | protein stability index (san1∆) | protein stability index (ubr1∆)
AQQAQQAQQAQQAQARL [SNF2] | 3.08 ± 0.051 | 3.24 ± 0.048 | 3.13 ± 0.035 | 3.2 ± 0.045
NSLLSNFNDIPPSVTLQ [YDL088C/ASM4] | 2.63 ± 0.081 | 1.98 ± 0.072 | 2.04 ± 0.11 | 2.72 ± 0.11
LLLAANTHLGARNVQVH [RPS0A] | 1.93 ± 0.04 | 1.21 ± 0.039 | 1.17 ± 0.061 | 1.13 ± 0.036
SGQLNFEIDGDVIHFED [PCI8] | 2.94 ± 0.091 | 2.83 ± 0.067 | 2.53 ± 0.075 | 2.83 ± 0.043
VTTKDDLSGADIQAMCT [RPT2] | 3.15 ± 0.07 | 3.3 ± 0.09 | 3.28 ± 0.038 | 3.35 ± 0.06
IKNLGLPSDRCSKAMGD [RPP1] | 3.36 ± 0.19 | 3.32 ± 0.13 | 3.25 ± 0.23 | 
FRKVKLRVDEVQGKNLL [RPS1B] | 3.25 ± 0.1 | 3.35 ± 0.15 |  | 3.28 ± 0.074
EYIELEYRDLYTNSVEL [YMR129W/POM152] | 3.16 ± 0.11 | 3.28 ± 0.096 | 3.27 ± 0.085 | 
MADLQKQENSSRFTNVS [YMR153W/NUP53] | 3.23 ± 0.15 | 3.1 ± 0.14 | 2.36 ± 0.24 | 3.31 ± 0.12
IERDSLVDDENEPSQSL [BRN1] | 3.27 ± 0.12 | 3.41 ± 0.12 | 3.18 ± 0.082 | 3.2 ± 0.077
TWNGSPFDNSTEEKCKN [YJL039C/NUP192] | 3.1 ± 0.084 | 3.38 ± 0.081 | 3.26 ± 0.066 | 3.33 ± 0.073
RLEFDQDRDRFFLRDTL [SNF5] | 3.07 ± 0.061 | 3.38 ± 0.065 | 3.06 ± 0.048 | 3.4 ± 0.061
YGGDGLDPLEMEGNAQP [RPO31] | 3.39 ± 0.081 | 3.43 ± 0.09 | 3.28 ± 0.07 | 3.29 ± 0.089
GFQDRSLPHFPKNSKTP [RPO31] | 2.7 ± 0.14 | 1.96 ± 0.1 | 1.56 ± 0.11 | 
DISLKADLERFFLSIYF [YJL039C/NUP192] | 3.24 ± 0.13 | 2.79 ± 0.092 | 2.96 ± 0.099 | 2.94 ± 0.044
QTQQDLPKVRYNVEKVK [NSL1] | 2.7 ± 0.074 | 2.57 ± 0.063 | 2.75 ± 0.054 | 2.33 ± 0.079
VETNTTVLADEFIAHRL [RPB3] | 3.05 ± 0.058 | 3.18 ± 0.054 | 3.19 ± 0.04 | 3.22 ± 0.033
IQRTTESLILKWDNQSA [RGR1] | 3.14 ± 0.051 | 3.05 ± 0.056 | 2.36 ± 0.059 | 2.94 ± 0.05
IEDEDEPFNAGIKYHAT [SMC1] | 3.04 ± 0.083 | 2.82 ± 0.1 | 2.9 ± 0.062 | 2.89 ± 0.05
KAPLQPNSERETDHANT [IRR1] | 2.6 ± 0.083 | 2.98 ± 0.062 | 2.59 ± 0.068 | 2.88 ± 0.047
DGGYNAQLAKAKTELNE [SMC2] | 2.64 ± 0.092 | 1.94 ± 0.058 | 1.44 ± 0.072 | 1.5 ± 0.038
ICYDVNDWQMLEMLKPC [RPB2] | 2.62 ± 0.063 | 2.67 ± 0.086 | 2.46 ± 0.073 | 2.61 ± 0.062
LSPSDQFAPAFLNTPNN [SSN2] | 1.96 ± 0.069 | 2.23 ± 0.1 | 2.06 ± 0.13 | 2.44 ± 0.098
LSEIESLDEILLPANLL [SRP68] | 3.14 ± 0.053 | 3.08 ± 0.052 | 3.02 ± 0.042 | 3.037 ± 0.027
AIQMVDPASFYLFDEID [SMC3] | 1.95 ± 0.042 | 2.32 ± 0.049 | 2.66 ± 0.067 | 2.07 ± 0.045

Sequence | protein stability index (doa10∆) | protein stability index (pdr5∆) | protein stability index (san1∆) | protein stability index (ubr1∆)
NLQPISTPENVPRLFDL [SMC4] | 2.89 ± 0.11 | 2.93 ± 0.084 | 2.6 ± 0.12 | 2.48 ± 0.064
KNIQSKDSYINANTIET [FAS2] | 2.9 ± 0.05 | 2.88 ± 0.043 | 2.9 ± 0.038 | 2.94 ± 0.052
RESLIMLLEEQLEYKRG [MED7] | 2.51 ± 0.08 | 2.77 ± 0.071 | 2.42 ± 0.091 | 2.75 ± 0.057
QLGYIENSFYKKEASKT [POP1] | 2.27 ± 0.061 | 2.43 ± 0.058 | 2.43 ± 0.056 | 2.39 ± 0.044
QKKARTILQHLSEAWRC [PRP8] | 1.96 ± 0.11 | 1.8 ± 0.097 | 2.28 ± 0.12 | 2.55 ± 0.16
LQPFYSQPTAAGGPDMT [DSN1] | 1.54 ± 0.049 | 1.51 ± 0.047 | 1.88 ± 0.077 | 1.62 ± 0.039
PGNNIPYMNHKNTSSMD [GAL11] |  | 2.11 ± 0.14 | 2.16 ± 0.21 | 
MKWDFAKDIKGYGTQKI [PRE4] | 2.15 ± 0.064 | 1.85 ± 0.057 | 1.84 ± 0.12 | 1.4 ± 0.048
AMVEKYAPDVVRSLENL [RRP42] | 2.59 ± 0.13 | 2.81 ± 0.067 | 2.65 ± 0.052 | 3.14 ± 0.038
GGSFGNREEFINKLVKS [RPL7A] | 2.98 ± 0.22 |  | 3.18 ± 0.17 | 2.93 ± 0.077
TAASVFKELCYENKDNL [PRE3] | 2.67 ± 0.051 | 2.45 ± 0.047 | 2.38 ± 0.058 | 2.17 ± 0.054
LFLTAPDSCNMQEKAAH [YCS4] |  | 2.67 ± 0.24 | 2.86 ± 0.12 | 2.92 ± 0.11
KLSKSATESIKNRRRIH [SMC1] |  |  |  | 2.62 ± 0.25
THAQRTGLSQIPNRRFT [PRP8] | 2.8 ± 0.048 | 2.62 ± 0.047 | 2.83 ± 0.048 | 2.88 ± 0.043
VLRINKMLSCAGADRLQ [RPL10] | 1.1 ± 0.092 | 1.28 ± 0.14 | 1.17 ± 0.21 | 1.11 ± 0.084
GIAIGLNKGKKVTQMTP [RPL36B] |  | 1.51 ± 0.2 |  | 
HPAHVMWSVARAGQRGY [RPL3] | 1.68 ± 0.2 | 1.83 ± 0.22 | 1.5 ± 0.13 | 1.24 ± 0.12
FDENIARDIISHNFQNA [PCI8] | 2.74 ± 0.053 | 2.77 ± 0.046 | 2.67 ± 0.043 | 2.77 ± 0.039
GIVSVSDPQMKVFDTLT [RPN1] | 2.81 ± 0.16 | 2.93 ± 0.12 | 2.87 ± 0.16 | 2.82 ± 0.13
DAKTSYPNEVLKFNHGN [REC8] | 2.78 ± 0.052 | 2.95 ± 0.072 | 3.02 ± 0.058 | 2.95 ± 0.065
GLSLAGLAPDARVLSNY [PRE5] | 1.23 ± 0.098 | 1.58 ± 0.1 | 1.27 ± 0.24 | 1.13 ± 0.1
ADINLEESIRESLQKRE [SIR3] | 3.4 ± 0.085 | 3.28 ± 0.088 | 3.09 ± 0.12 | 3.36 ± 0.062
SVNFFVSLLKKNWQNVG [RPL1A] | 1.19 ± 0.07 | 1.32 ± 0.063 | 1.25 ± 0.14 | 1.46 ± 0.063
